Where a chain is given by its changes, count along the chain named. Names and notes keep the numbering of the source. “Also recorded” adds a separate entry of the source.

B1: mSA (monomeric streptavidin construct), wild type (other)
chain: HHHHHHSQDLASAEAGITGTWYNQSGSTFTVTAGADGNLTGQYENRAQGTGCQNSPYTLTGRYNGTKLEWRVEWNNSTENCHSRTEWRGQYQGGAEARINTQWNLTYEGGSGPATEQGQDTFTKVKPSAASGSDYKDDDDK
notes: also called mSAWT
B2: 4NBX.B-biotin103 v186: v149 plus Y101L/R107F/R56T/Y106K/D108A/Y110S, SEQ ID NO:5; the WT line of Table 2 (conjugate)
VHH: QVQLQESGGGLAQAGGSLRLSCAASGRTFSRSPMAWFRQPPGKEREFVAAGSSTGTTTYYADSVKGRFTISRDNAKNTVYLQMNSLKPEDTAVYYCAAAPLGCARKFAESAYWGQGTQVTVSSHHHHHH
B3: 4NBX.B-biotin103 v186_Fr − 1: v186_Fr with biotin103 moved to −1 position on CDR3, SEQ ID NO:8 (conjugate)
VHH: B2 VHH with A12V, F37Y, G102C, C103A
modifications: biotin conjugated; 4NBX.B-biotin103 v186_Fr -1
B4: 4NBX.B-biotin103 v186_Fr + 1: v186_Fr with biotin103 moved to +1 position on CDR3, SEQ ID NO:7 (conjugate)
VHH: B2 VHH with A12V, F37Y, C103A, A104C
modifications: biotin conjugated; 4NBX.B-biotin103 v186_Fr +1
B5: 4NBX.B-biotin103 v186_Fr: v186 plus framework mutations A12V/F37Y, SEQ ID NO:6 (conjugate)
VHH: B2 VHH with A12V, F37Y
B6: Wildtype 4NBX.B: nanobody scaffold, chain B of PDB structure 4NBX, SEQ ID NO:1, unconjugated (protein)
VHH: QVQLQESGGGLAQAGGSLRLSCAASGRTFSMDPMAWFRQPPGKEREFVAAGSSTGRTTYYADSVKGRFTISRDNAKNTVYLQMNSLKPEDTAVYYCAAAPYGANWYRDEYAYWGQGTQVTVSSHHHHHH
modifications: 4NBX.B-WT
B7: 4NBX.B-biotin103 v119: 4NBX.B-biotin103 with M31H/D32A/N104S/W105H, SEQ ID NO:3 (conjugate)
VHH: B6 VHH with M31H, D32A, A103C, N104S, W105H
B8: 4NBX.B-biotin103 v149: 4NBX.B-biotin103 with M31R/D32S/N104A/W105R, SEQ ID NO:4; the WT line of Table 3 (conjugate)
VHH: B6 VHH with M31R, D32S, A103C, N104A, W105R
B9: 4NBX.B-biotin103: nanobody 4NBX.B A103C (SEQ ID NO:2) conjugated with biotin C2 maleimide at site 103 (conjugate)
VHH: B6 VHH with A103C
B10: 2X89.A-CCAA-biotin57 v42 (VHH)
VHH: QVQLQESGGGLVQAGGSLRLSCAASGYTDSQYAMGWYRQAPGKEREWVATISAGRDCTYYADSVKGRFTFSQDNAKNTVYLQMDSLKPEDTAVYYCATDIPLQATLITAKGGKGFQYWGQGTQVTVSS
B11: 2X89.A-CCAA-biotin57 v37 (VHH)
VHH: B10 VHH with Q31R, T50R, K113D, Q116R
B12: 2X89.A-CCAA-biotin57 v20 (VHH)
VHH: B10 VHH with D29S, I100S
B13: 2X89.A-CCAA-biotin57 v5: final variant of 2X89.A-CCAA-biotin57 that accumulated 18 mutations, SEQ ID NO:14 (conjugate)
VHH: QVQLQESGGGLVQAGGSLRLSCAASGYTSSQYAMGWYRQAPGKEREWVATISAGADCTYYADSVKGRFTFSQDNAKNTVYLQMDSLKPEDTAVYYCATDSPLQATLITAKGGKGFQYWGQGTQVTVSSHHHHHH
B14: 2X89.A-CCAA-biotin57: nanobody 2X89.A, intra-CDR disulfide replaced by two alanines, biotin conjugated to site 57, SEQ ID NO:10 (conjugate)
VHH: QVQLQESGGGSVQAGGSLRLSCAASGYTDSRYAMAWFRQAPGKEREWVARINSGRDCTYYADSVKGRFTFSQDNAKNTVYLQMDSLEPEDTATYYCATDIPLRARDIVAKGGDGFRYWGQGTQVTVSSHHHHHH
B15: 4NBX.B-biotin103 v186 (VHH)
VHH: QVQLQESGGGLAQAGGSLRLSCAASGRTFSRSPMAWFRQPPGKEREFVAAGSSTGTTTYYADSVKGRFTISRDNAKNTVYLQMNSLKPEDTAVYYCAAAPLGCARKFAESAYWGQGTQVTVSS
B16: 4NBX.B-biotin103 v186_Fr -1 (VHH)
VHH: B15 VHH with A12V, F37Y, G102C, C103A
notes: also called -1 variant of 4NBX.B-biotin103 v186_Fr
B17: 4NBX.B-biotin103 v186_Fr +1 (VHH)
VHH: B15 VHH with A12V, F37Y, C103A, A104C
notes: also called +1 variant of 4NBX.B-biotin103 v186_Fr

The target of series [1] is T1, N-terminal biotinylated Smt3 SUMO protein (UniProt Q12306 2-98 = SUMO). As to the kind of experiment: SPR, Biotin_SUMO injected at 2.5, 10, 20, 50, 80 nM over immobilized mSAWT; fit curve; replicate 2.
For series [2], the target named is T1, N-terminal biotinylated Smt3 SUMO …. Briefly: SPR, Biotin_SUMO injected at 2.5, 10, 20, 50, 80 nM over immobilized mSAWT; fit curve; one of three replicates. (In general: In SPR one partner is held on a chip, and binding of the other changes the refractive index at the surface.)
Series [3] has the same target. Briefly: SPR, Biotin_SUMO injected at 2.5, 10, 20, 50, 80 nM over immobilized mSAWT; fit curve; replicate 3.
The conditions of series [4]: for aggregation / monomer stability on SEC: SEC traces. The method, then: Two additional rounds of CDR residue mutability analysis were performed followed by in-parallel combinatorial designs on v149 until no further CDR mutations were predicted to be energetically favorable. Mutations accumulated in previous rounds of design were kept intact in subsequent rounds.

In series [5] the target is mSA (monomeric streptavidin, mSAWT) (Streptomyces avidinii; Rhizobium etli, UniProt P22629+Q8KKW2). As to the kind of experiment: SPR binding against mSAWT. As to conditions: for koff / dissociation rate, in words: mSAWT. From the text: Smt3 SUMO protein has an unstructured N-terminus and it was hypothesized this would minimize the interaction between the protein components.

Series [6] addresses B1. As to the kind of experiment: SPR, single-cycle injections of 2.5, 5, 10, 20 and 50 nM conjugate; target mSAWT by the text, not printed on the sheet; fit curve.
Series [7] addresses B1. As to the kind of experiment: SPR.
Series [8] addresses B1. Briefly: SPR, single-cycle injections of 2.5, 5, 10, 20 and 50 nM conjugate; target mSAWT by the text, not printed on the sheet; fit curve.
Series [9] addresses B1. Briefly: SPR, conjugate injected at 0.5, 1, 2.5, 5, 10 nM over immobilized mSAWT; fit curve.
The target of series [10] is B1. As to the kind of experiment: SPR, single-cycle injections of 1, 2.5, 5, 10 and 20 nM conjugate over immobilized mSAWT; fit curve.
The target in series [11] is B1. The series is described as above.

In general, Kd refers to the equilibrium constant for the complex coming apart. The low end stands for tighter binding, the high end for weaker binding. As a reminder, the koff is the rate constant with which the complex falls apart. A low value points to a long-lived complex. The term kon denotes the rate constant with which the complex forms. B1: the Kd in series [1] worked out at 10.5 nM; in series [2], 7.85 nM; in [3] it was 10.4 nM. Further, the results for the off-rate constant (koff) in series [1], in series [2] and in [3] were 0.00372 s⁻¹, 0.00334 s⁻¹ and 0.00366 s⁻¹, respectively. Also, the kon is 360000 M⁻¹ s⁻¹ in series [1], 430000 M⁻¹ s⁻¹ in series [2] and 350000 M⁻¹ s⁻¹ in [3].
In the case of B2, the “aggregation / monomer stability on SEC” value in [4] was “even worse aggregates formation than v149”. The “KD / measured affinity against mSAWT, comparison in words” value (“KD / measured affinity against mSAWT” below) in series [5] is “very similar KD as v149”.
For the molecule B3, the “KD / measured affinity against mSAWT” value in series [5] is “minimally different from the wildtype v186_Fr”.
B4: the “KD / measured affinity against mSAWT” value in series [5] is “minimally different from the wildtype v186_Fr”.
B5: the “aggregation / monomer stability on SEC” value in series [4] is “significantly reduced aggregation”. Also, the “re-aggregation of collected fractions excluding the aggregates peak” value in series [4] (rerun on SEC) is given as “did not re-aggregate”.
With B6, in series [5] (concentrations up to 100 nM), the “binding signal to mSA” value is “did not show binding signal”.
With B7, the “aggregation / monomer stability on SEC” value in series [4] is given as “single peaks”. Further, the “koff / dissociation rate, in words” value in [5] is listed as “only minimally different”.
As to B8, the “aggregation / monomer stability on SEC” value in series [4] is “very prone to aggregation”.
B9: in series [4], the “aggregation / monomer stability on SEC” value was “single peaks”.
In the case of B10, in series [6], binding was put at a Kd of 3.32 nM, the off-rate constant (koff) is 0.00178 s⁻¹ and the kon came out at 540000 M⁻¹ s⁻¹.
On to B11, for which the binding result in series [7] was “binds”.
In [8], B12 displayed a Kd of 3.28 nM, a koff of 0.00183 s⁻¹ and a kon of 560000 M⁻¹ s⁻¹.
As for B13, the “aggregation / monomer stability on SEC” value in series [4] is “eventually better than the 2X89.A-CCAA-biotin57 parent conjugate”. Further, the “koff / dissociation rate, in words” value in [5] is given as “relatively preserved”.
For B14, in that order: “aggregated obviously” and “especially slow dissociation rate; also recorded: slightly better than the best designed 4NBX.B variant v186_Fr”.
With B15, in [9], binding was put at a Kd of 0.33 nM, the koff was 0.00106 s⁻¹ and the kon was 3.23e+06 M⁻¹ s⁻¹.
As to B16, in [10], binding was put at a Kd of 0.32 nM, the koff turned out to be 0.000986 s⁻¹ and the kon was found to be 3.13e+06 M⁻¹ s⁻¹.
For the molecule B17, the “fold weaker binding than the -1 variant” value in series [7] was around 2 fold. In [11], binding was put at a Kd of 0.64 nM, the koff was 0.00138 s⁻¹ and the kon was 2.14e+06 M⁻¹ s⁻¹.

For the origin of these results see patent US20210398607A1, “METHODS FOR DESIGNING ANTIBODY SMALL-MOLECULE CONJUGATES” (priority 2020, published 2021).
